# Reference: patent publication US20110059851A1 (MOUNT SINAI SCHOOL OF MEDICINE OF NEW YORK UNIVERSITY, published 2011)
# T1: V5-tagged SHOC2^S2G (human SHOC2 Ser2Gly mutant) (human, UniProt Q5RAV5 1-582 (Pongo abelii entry), limits assumed, N-myristoylation at the N-terminal glycine (Gly 2) after excision of the initiator methionine; [3H]myristic acid incorporation shown in Cos-1 cells)
# T1 construct: Expressed transiently in Cos-1 cells, with human NMT1 co-transfected, from a V5-tagged human SHOC2 cDNA construct made by site-directed mutagenesis; Tested in cell lysates by co-immunoprecipitation; also called mutant SHOC2; not shown: V5 tag
# T1 sequence: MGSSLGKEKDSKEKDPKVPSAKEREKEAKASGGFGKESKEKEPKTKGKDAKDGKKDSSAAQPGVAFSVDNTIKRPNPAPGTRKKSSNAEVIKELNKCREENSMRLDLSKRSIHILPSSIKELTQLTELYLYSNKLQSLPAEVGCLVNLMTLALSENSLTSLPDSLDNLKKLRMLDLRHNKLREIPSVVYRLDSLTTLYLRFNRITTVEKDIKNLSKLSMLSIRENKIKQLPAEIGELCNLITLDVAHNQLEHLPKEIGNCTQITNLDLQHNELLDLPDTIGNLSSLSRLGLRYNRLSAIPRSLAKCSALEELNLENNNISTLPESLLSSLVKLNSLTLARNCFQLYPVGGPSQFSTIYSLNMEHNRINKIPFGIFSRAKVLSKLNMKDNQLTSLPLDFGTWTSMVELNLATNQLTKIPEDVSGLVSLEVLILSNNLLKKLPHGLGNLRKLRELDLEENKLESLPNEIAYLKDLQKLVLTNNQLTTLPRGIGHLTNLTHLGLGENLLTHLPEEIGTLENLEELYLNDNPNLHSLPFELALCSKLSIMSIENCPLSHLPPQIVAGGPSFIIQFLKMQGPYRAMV
# Target: T1, V5-tagged SHOC2^S2G (human SHOC2 …)
# Experiment: co-immunoprecipitation (anti-Myc or anti-V5, western blot) and confocal microscopy in COS-1 cells co-transfected with V5- and Myc-tagged proteins
binder,measurement,value
"Myc-tagged SHOC2^wt (wild-type human SHOC2) (other, Expressed transiently in Cos-1 cells from a Myc-tagged human SHOC2 cDNA construct and tested in cell lysates by co-immunoprecipitation; also called wild type SHOC2; wild-type protein; not shown: Myc tag) MSSSLGKEKDSKEKDPKVPSAKEREKEAKASGGFGKESKEKEPKTKGKDAKDGKKDSSAAQPGVAFSVDNTIKRPNPAPGTRKKSSNAEVIKELNKCREENSMRLDLSKRSIHILPSSIKELTQLTELYLYSNKLQSLPAEVGCLVNLMTLALSENSLTSLPDSLDNLKKLRMLDLRHNKLREIPSVVYRLDSLTTLYLRFNRITTVEKDIKNLSKLSMLSIRENKIKQLPAEIGELCNLITLDVAHNQLEHLPKEIGNCTQITNLDLQHNELLDLPDTIGNLSSLSRLGLRYNRLSAIPRSLAKCSALEELNLENNNISTLPESLLSSLVKLNSLTLARNCFQLYPVGGPSQFSTIYSLNMEHNRINKIPFGIFSRAKVLSKLNMKDNQLTSLPLDFGTWTSMVELNLATNQLTKIPEDVSGLVSLEVLILSNNLLKKLPHGLGNLRKLRELDLEENKLESLPNEIAYLKDLQKLVLTNNQLTTLPRGIGHLTNLTHLGLGENLLTHLPEEIGTLENLEELYLNDNPNLHSLPFELALCSKLSIMSIENCPLSHLPPQIVAGGPSFIIQFLKMQGPYRAMV",binding result,no binding
